The results in this text go back to the supplement of paper PMC9170038.

This data set has as its system MS2 coat protein. Briefly: apparent KD of MS2 coat protein; designed switch direction (-1 OFF switch, 1 ON switch): 1; higher = weaker reporter binding. Summed up: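 Three titration conditions were used: no input, 200 uM small-molecule ligand, and an oligonucleotide input. In each, SNAP-549-labelled MS2 coat protein was raised from 0.7 or 1.5 nM, doubling, to 3 µM over designed RNA switches transcribed on Illumina chips by stalled E. coli RNA polymerase. Curve fits of normalised cluster fluorescence gave values whose per-design median over clusters is the apparent KD.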

Where [1] appears, read: input ligand: microRNA oligo, concentration not stated.
Where [2] appears, read: Eterna round: R95, input ligand: FMN 200 uM.
The mark [3] stands for this setting: Eterna round: R95, input ligand: microRNA oligo, concentration not stated.
Where [4] appears, read: Eterna round: R95, input ligand: none.

Consider “UGUUGUAUUACAGGAUAUCUAUUAGUUUUAGUUAGAGAAGGGUAUUCACAUGAGGAUCACCCAUGUAUAUACGAGGAAGUUGUG [JMF's solution 99] (Eterna round: R96, puzzle: Same State NG 1)”, for which, under setting [1], the “apparent KD of MS2 coat protein” value came to 34.6 nM.

Take “GACAAUCUAUCUGAGGAUAUCAUGAAAAAAACAUGAGGAUCACCCAUGUGCAGGAAAACUGCAUAUGAGAAGGCAGAUAGAUUGU [salish99_SS2_r3_010] (puzzle: Same State 2)”: the “apparent KD of MS2 coat protein” value by setting is: under setting [2], 45.3 nM; under setting [3], 689 nM; under setting [4], 627 nM.

“GGGCUCUACGGAGGAUAUUCAACACAUGAGGAUCACCCAUGUCAGCCUCCCUGAUCCAGGGAAGCGAAGAAGGCUGCGAGGACG [Eternabot solution 35] (Eterna round: R96, puzzle: Same State NG 2)”: the “apparent KD of MS2 coat protein” value turned out to be 29.1 nM (input ligand: FMN 200 uM), 21.8 nM under setting [1] and 34.5 nM (input ligand: none).

Turning to “CACGUCCAGGUAGGAUAUGAGGUGCCACAGGGAAAAGCCUGUGGACAUGAGGAUCACCCAUGUCCUCAGAAGGGCCGGACGUGG [Reanorge] (Eterna round: R96, puzzle: Same State NG 2)”, the “apparent KD of MS2 coat protein” value (input ligand: FMN 200 uM) worked out at 17.3 nM, the “apparent KD of MS2 coat protein” value under setting [1] worked out at 52.8 nM and the “apparent KD of MS2 coat protein” value (input ligand: none) stood at 72 nM.

On to “CGUCCAGCCUGAGCUGGACAAAAGCAUGUACAUGAGGAUCACCCAUGUUCAUGUACAAGCUUUUUGCUCGUCUUAUG [salish99_208a_r3_054] (puzzle: Sensor for hsa-mir-208a)”, for which the “apparent KD of MS2 coat protein” value stood at 662 nM under setting [2], 17.9 nM under setting [3] and 1110 nM under setting [4].

As to “AGCUAUCGAAAACGAUAGCAGAAGCAUGUACAUGAGGAUCACCCAUGUCAUGUACAAGCUUUUUGCUCGUCUUAAAA [Zipper 23 - 1] (puzzle: Sensor for hsa-mir-208a)”, the “apparent KD of MS2 coat protein” value turned out to be 360 nM under setting [2], 17.8 nM under setting [3] and 703 nM under setting [4].

On to “UCUUGGUUUUUGCUCGUUUUUUGUGUUGAACAUGAGGAUCACCCAUGUAUUGUACAGUCCGGUUUGAUGAUGGUCCG [JMF 59] (puzzle: Sensor for hsa-mir-208a)”, for which the “apparent KD of MS2 coat protein” value reads like this: under setting [2], 32.1 nM; under setting [3], 25.6 nM; under setting [4], 33.4 nM.

For “UGUACAUGAGGAUCACCCAUGUCUAGACAUGUUAAUAUAAUGUAGGAUAUAUAAAAUUUAAUUUAAUAGAAGGACAAUUUUUUU [JMF's solution 1] (Eterna round: R96, puzzle: Same State NG 3)”, the “apparent KD of MS2 coat protein” value (input ligand: FMN 200 uM) is 278 nM, the “apparent KD of MS2 coat protein” value under setting [1] was 218 nM and the “apparent KD of MS2 coat protein” value (input ligand: none) was 297 nM.

In the case of “GUAGCAUACCGAGGAUAUUCAACAUGAGGAUCACCCAUGUGUUUAUUAUAGGCCAAAAGGCCUUGGGAGAAGGCGGAAUGCUAC [Xeonanis - 20 Mod15] (Eterna round: R96, puzzle: Same State NG 2)”, the “apparent KD of MS2 coat protein” value (input ligand: FMN 200 uM) came out at 9.4 nM, the “apparent KD of MS2 coat protein” value under setting [1] is 8.4 nM and the “apparent KD of MS2 coat protein” value (input ligand: none) worked out at 15.7 nM.

Regarding “CCAUAGUACAAUUUAGAUCUACAUGAGGAUCACCCAUGUACUGAGGAUAUCAGCUCGUUUAGAGCUGAGAAGGCAGAAUUAAUU [SSNG3/5-A3] (Eterna round: R96, puzzle: Same State NG 3)”, the “apparent KD of MS2 coat protein” value is, setting by setting: (input ligand: FMN 200 uM) 57.1 nM; under setting [1], 116 nM; (input ligand: none) 112 nM.

As to “AUAAAUAACACAGGAUAUCCACACGAAUAGUGCGGAGAAGGGUGAACGUCGGCUCUCGCCAACAUGAGGAUCACCCAUGUAAAA [Tediissobe] (Eterna round: R96, puzzle: Same State NG 1)”, the “apparent KD of MS2 coat protein” value reads like this: (input ligand: FMN 200 uM) 64.4 nM; under setting [1], 12.7 nM; (input ligand: none) 31.5 nM.

On to “GGGAGAGACGCAGGAUAUGGUGAGGAUUACCCACUAGAAGGGUGGACAUGAGAAUCGAACAUGAGGAUCACCCAUGUUCUGAGG (Eterna round: R96, puzzle: Same State NG 1)”, for which the “apparent KD of MS2 coat protein” value was determined as 64 nM (input ligand: FMN 200 uM), 44.3 nM under setting [1] and 66 nM (input ligand: none).

As for “UACAAUCUAUCUGAGGAUAUCAUGAUUAUAACAUGAGGAUCACCCAUGUGCAGGAAAACUGCAUAUGAGAAGGCAGAUAGAUUGU [salish99_ss2_r3_069] (Eterna round: R96, puzzle: Same State 2)”, the “apparent KD of MS2 coat protein” value came out at 228 nM (input ligand: FMN 200 uM), 116 nM under setting [1] and 232 nM (input ligand: none).

As to “AUAUAACAUGAGGAUCACCCAUGUCACUAAAGUCGAGGAUAUGGGCAGGUUAUAUCCGAACCAGAAGGCGAAUUAU [SS1 Teenbexe 6] (puzzle: Same State 1)”, the “apparent KD of MS2 coat protein” value under setting [3] amounted to 163 nM.

On to “AAAGGAUGAUGUUACAUGAGGAUCACCCAUGUAGUGAUAACUAAGGAUAUGUGUUAAACAAGUUAAUAGAAGGUAGGAUCAUUA [AK SSNG3-V2-7] (Eterna round: R96, puzzle: Same State NG 3)”, for which the “apparent KD of MS2 coat protein” value by setting is: (input ligand: FMN 200 uM) 73.9 nM; under setting [1], 52 nM; (input ligand: none) 69.4 nM.

“GGAGCCGGCCUAGGAUAUUUCAUAAAUUUACAUGAGGAUCACCCAUGUAGGCCAGAAGGCCUUGGGAAGAAGGAGGUCGGCUCC [Loop Effect - U27,U28,U29] (Eterna round: R96, puzzle: Same State NG 2)”: the “apparent KD of MS2 coat protein” value came to 11.3 nM (input ligand: FMN 200 uM), 27.5 nM under setting [1] and 40.5 nM (input ligand: none).

For “GGUUUAGCCAGGUGCAGUUGCACCUGAAAACAUGAGGAUCACCCAUGUUUGGGACAAGCUUUGCUCCUCGUCUUUCC [Isusreraar] (puzzle: Sensor for hsa-mir-208a)”, the “apparent KD of MS2 coat protein” value under setting [2] came to 267 nM, the “apparent KD of MS2 coat protein” value under setting [3] stood at 38.7 nM and the “apparent KD of MS2 coat protein” value under setting [4] turned out to be 364 nM.

For “AUGCCAAAUGGAGGAUAUGGAGCCUUAUUGGCUCCAGAAGGUCGGACAUGAGGAUCACCCAUGUGGCAGUGGUCUAAUGACCAC [Eli NG1ss - 42] (Eterna round: R96, puzzle: Same State NG 1)”, the “apparent KD of MS2 coat protein” value runs as follows: (input ligand: FMN 200 uM) 242 nM; under setting [1], 293 nM; (input ligand: none) 463 nM.

On to “GGAGCCAAGGCAGGAUAUUCAUAUUAAUUACAUGAGGAUCACCCAUGUUGGGCCAGAAGGCCUUGGGAGAAGGGCCAUGGCUCG [Xeonanis - 13 mod18] (Eterna round: R96, puzzle: Same State NG 2)”, for which the “apparent KD of MS2 coat protein” value is, setting by setting: (input ligand: FMN 200 uM) 27.1 nM; under setting [1], 56.5 nM; (input ligand: none) 84 nM.

“GGAAUAUUUACAGGAUAUGAUUUGUAAAUUCGAUCAGAAGGGUAGAUGUCUUACACGGUUUGUUACAUGAGGAUCACCCAUGUU [SameState NG1 #11] (Eterna round: R96, puzzle: Same State NG 1)”: under setting [1], the “apparent KD of MS2 coat protein” value amounted to 109 nM.

“AACAAUCUAUCUGAGGAUAUCAUGAAAUAAACAUGAGGAUCACCCAUGUGCAGGAAAACUGCAUAUGAGAAGGCAGAUAUAUUGA [salish99_ss2_r3_055] (puzzle: Same State 2)”: the “apparent KD of MS2 coat protein” value under setting [2] came out at 104 nM, the “apparent KD of MS2 coat protein” value under setting [3] is 1160 nM and the “apparent KD of MS2 coat protein” value under setting [4] was determined as 4700 nM.

As to “CUGCAACAUGAGGAUCACCCAUGUAACCCAAUUAUAGGAUAUGUGAUAGUGAUCGACAUGACAGAAGGGUGAUUGG [Riraence] (puzzle: Same State 1)”, the “apparent KD of MS2 coat protein” value was 149 nM under setting [2], 188 nM under setting [3] and 291 nM under setting [4].

Consider “GCUCGAUGAGCGUUUUACAUGAGGAUCACCCAUGUACGUGGGCAGGAUAUUUACGUGCGGUGUGUAGAGAAGGGCCCAUCGAGC [SameState NG3 #70] (Eterna round: R96, puzzle: Same State NG 3)”, for which the “apparent KD of MS2 coat protein” value by setting is: (input ligand: FMN 200 uM) 48.3 nM; under setting [1], 243 nM; (input ligand: none) 279 nM.

Regarding “ACAUGAGAGAUAGGAUAUCUUGUACCUACAUGUGACAUGAGGAUCACCCAUGUGGUAAGUAUGACAGAGAAGGAUCAGAUAUGU [Equivalance 70 - Jieux - Same State NG 2] (Eterna round: R96, puzzle: Same State NG 2)”, the “apparent KD of MS2 coat protein” value stood at 20.5 nM (input ligand: FMN 200 uM), 62.8 nM under setting [1] and 82.4 nM (input ligand: none).

With “AGUCCAGCCUGAGCUGGACAAAAGCAUGUACAUGAGGAUCACCCAUGUUCAUGUACAAGCUUUUUGCUCGUCUUAGA [salish99_208a_r3_059] (puzzle: Sensor for hsa-mir-208a)”, the “apparent KD of MS2 coat protein” value is, setting by setting: under setting [2], 709 nM; under setting [3], 15.4 nM; under setting [4], 732 nM.

For the sequence “UGCUAUUGUAUAUUGGUGCAAGCUUUUUGACAUGAGGAUCACCCAUGUACUCGUCUUAUGUGCAGUCCGUAGACUGC [JL-shm-2.24 Brourd mod] (puzzle: Sensor for hsa-mir-208a)”, the “apparent KD of MS2 coat protein” value by setting is: under setting [2], 47.8 nM; under setting [3], 13.4 nM; under setting [4], 45.6 nM.

In the case of “AUUGCUAUCACAGGAUAUCAUGCGAAAAUUGCGUGAGAAGGGUGGACUCUGUCAUUGCCGGAGGACAUGAGGAUCACCCAUGUC [SameState NG1 #100] (Eterna round: R96, puzzle: Same State NG 1)”, the “apparent KD of MS2 coat protein” value is, setting by setting: (input ligand: FMN 200 uM) 96.2 nM; under setting [1], 27 nM; (input ligand: none) 60.9 nM.

Take “AUAAGGCAAGCUUUUUUCUCGUAGUGUAAACAUGAGGAUCACCCAUGUGCUCGCCCUGGAUCUUUGGAUCGCAGAAA [Geedbigexe] (puzzle: Sensor for hsa-mir-208a)”: the “apparent KD of MS2 coat protein” value came out at 46.7 nM under setting [2], 18.6 nM under setting [3] and 45.3 nM under setting [4].
